This passage reports transendocytosis, cells edited with the cDNA exon 1 insertion (fold less than unedited cells) results from patent US20240424023A1.

Assay [1] concerns the target CD80-mCherry expressed on DG75 cells (UniProt P33681). Put plainly: cell-based or functional assay.
Assay [2] has as its target CD86-mCherry expressed on DG75 cells (UniProt P42081). Put plainly: cell-based or functional assay.
Sequence of UniProt P42081 (P42081 24-329): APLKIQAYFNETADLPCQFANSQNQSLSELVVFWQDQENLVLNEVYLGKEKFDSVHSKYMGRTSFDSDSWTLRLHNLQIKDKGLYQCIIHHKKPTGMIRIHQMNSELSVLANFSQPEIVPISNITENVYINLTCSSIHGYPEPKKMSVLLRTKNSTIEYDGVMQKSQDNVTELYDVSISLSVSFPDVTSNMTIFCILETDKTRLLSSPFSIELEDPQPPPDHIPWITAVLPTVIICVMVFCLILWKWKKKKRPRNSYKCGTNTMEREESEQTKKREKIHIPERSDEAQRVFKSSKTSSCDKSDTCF

Sequence of UniProt P33681 (P33681 35-288): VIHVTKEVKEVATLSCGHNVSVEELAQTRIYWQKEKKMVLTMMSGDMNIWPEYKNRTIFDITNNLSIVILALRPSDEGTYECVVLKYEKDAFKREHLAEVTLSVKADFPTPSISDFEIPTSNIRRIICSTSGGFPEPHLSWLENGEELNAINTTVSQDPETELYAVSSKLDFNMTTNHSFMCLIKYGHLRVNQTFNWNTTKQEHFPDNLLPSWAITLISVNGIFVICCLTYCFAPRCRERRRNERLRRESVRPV

With “CTLA4 expressed from a CTLA4-P2A-GFP transgene in human T cells (exon 1 cDNA insertion, intron 1 insertion of exons 2-4 with WPRE donor, or lentiviral vector) (from UniProt P16410 36-223) (receptor)”, the transendocytosis, cells edited with the cDNA exon 1 insertion (fold less than unedited cells) in assay [1] and in assay [2] was 2 in each case.
